Assays:
yeast-displayed hVISTA [1] = molecular target: T1, yeast-displayed hVISTA (human); assay: flow cytometry on cells; hVISTA (Phe33-Ala194) displayed on yeast, titrations of soluble antibody in PBS/BSA pH 6.0, 4 °C, 12 h; conditions: one partner purified
T1 construct: also called wild-type hVISTA; WT VISTA

yeast-displayed hVISTA [2] = molecular target: T1, yeast-displayed hVISTA; assay: flow cytometry on cells; hVISTA (Phe33-Ala194) displayed on yeast, titrations of soluble antibody in PBS/BSA pH 7.4, 4 °C, 12 h; conditions: one partner purified

T1 sequence (chain, as listed by the source): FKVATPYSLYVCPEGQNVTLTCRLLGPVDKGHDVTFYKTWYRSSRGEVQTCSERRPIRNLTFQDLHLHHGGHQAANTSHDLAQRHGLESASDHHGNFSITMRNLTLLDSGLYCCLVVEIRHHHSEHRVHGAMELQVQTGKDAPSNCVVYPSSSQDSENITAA

Row | Kd (yeast-displayed hVISTA [1]) [nM] | Kd (yeast-displayed hVISTA [2]) [nM] | Binder
1 | ~3 |  | BMS767 (antibody, V domains shown, human IgG1 heavy chain; human kappa light chain; full human IgG1; also called BMS (Bristol Myers Squibb); source: Expi293 cells, purified (protein A)) VH: EVQLVESGGGLVQPGKSLRLSCAASGFTLEDYAMHWVRQAPGKGLEWVSGIDWNSENIGYADSVKGRFTISRDNAKNSLYLQMNSLRTEDTALYYCAKVPGYSGGWIDAEDDWGQGTMVTVSS VL: not shown
2 |  | ~3 | VSTB112 (antibody, V domains shown, human IgG1 heavy chain; human kappa light chain; full human IgG1; also called CI-8993 (Janssen/ImmuNext, Curis); source: Expi293 cells, purified (protein A)) VH: QVQLVQSGAEVKKPGSSVKVSCKASGGTFSSYAISWVRQAPGQGLEWMGGIIPIFGTANYAQKFQGRVTITADESTSTAYMELSSLRSEDTAVYYCARSSYGWSYEFDYWGQGTLVTVSS VL: DIQMTQSPSSLSASVGDRVTITCRASQSIDTRLNWYQQKPGKAPKLLIYSASSLQSGVPSRFSGSGSGTDFTLTISSLQPEDFATYYCQQSAYNPITFGQGTKVEIK
